Biological target: F-actin (freshly polymerized actin) (UniProt P68135)
Assay: co-sedimentation

A percent bound at 5 µM F-actin of 10% was found for “GST(541–605,Δ25)PRG (from UniProt O15085 541-605) (domain or fragment)” in this work.

Source: PMC2728795
